In patent US20240117073A1, “METHODS OF TREATING NEOPLASTIC ASTROCYTOMA” (Ludwig Institute for Cancer Research Ltd., priority 2009, published 2024):
Values joined by “and” are separate entries in the source; they are usually repeats but may differ in a detail not shown here. Identical values can stand only once. “Also recorded” adds a separate entry of the source.

Experiments:
[1] = tested on: U87MG.wtEGFR brain xenografts; assay: systemic treatment of intracranial xenografts; set-up: species or system nude mice; conditions: mouse, in vivo
Method: U87MG.ΔEGFR cells (1×10^5) or 5×10^5 LN-Z308.ΔEGFR, A1207.ΔEGFR, U87MG, U87MG.DK, and U87MG.wtEGFR cells in 5 μl of PBS were implanted into the right corpus stratum of nude mice brains as described previously (Mishima et al. (2000) A peptide derived from the non-receptor binding region of urokinase plasminogen activator inhibits glioblastoma growth and angiogenesis in vivo in combination with cisplatin. Proc. Natl. Acad. Sci. U.S.A. 97, 8484-8489).

U87MG xenografts [2] = assay: preventative xenograft model; type: in vivo, nude mice; conditions: 1 mg per injection i.p., 3 times per week for 2 weeks
Method: (§1) Tumor cells (3×10^6) in […] of PBS were inoculated subcutaneously into both flanks of 4-6 week old female nude mice (Animal Research Centre, Western Australia, Australia). […] Treatment was continued for a total of 6 doses, 3 times per week for 2 weeks. In the established model, treatment was started when tumors had reached a mean volume of 65±6.42 mm^3 (U87MG.Δ2-7), 84±9.07 mm^3 (U87MG), 73±7.5 mm^3 (U87MG.wtEGFR) or 201±19.09 mm^3 (A431 tumors). Tumor volume in mm^3 was determined using the formula (length×width^2)/2, where length was the longest axis and width the measurement at right angles to the length (Clark et al. (2000) Therapeutic efficacy of anti-Lewis (y) humanized 3S 193 radioimmunotherapy in a breast cancer model: enhanced activity when combined with Taxol chemotherapy. Clin. Cancer Res. 6, 3621-3628). Data was expressed as mean tumor volume±S.E. for each treatment group. Statistical analysis was performed at given time points using Student's t-test. Animals were euthanized when the xenografts reached an approximate volume of 1.5 cm^3 and the tumors excised for histological examination. This research project was approved by the Animal Ethics Committee of the Austin and Repatriation Medical Centre.

DU145 cells = assay: FACS binding to cell lines; type: cell-based, human
Text: Clearly, mAb806 and mAb175 can recognize only a small proportion of the EGFR on cells in the presence of an autocrine stimulation loop.

normal tissues = assay: immunohistochemistry of normal tissue; set-up: species or system human
Method: Immunohistochemical analysis was performed using […] sections of fresh frozen tissue applied to histology slides and fixed for 10 minutes in cold acetone. Bound primary antibody was detected with biotinylated horse anti-mouse antibody followed by an avidin-biotin-complex reaction. Diaminobenzidine tetra hydrochloride (DAB) was used as chromogen. The extent of the immunohistochemical reactivity in tissues was estimated by light microscopy and graded according to the number of immunoreactive cells in 25% increments as follows: • Focal=less than 5% • +=5-25% • ++=25-50% • +++=50-75% • ++++=>75%
There was some variable staining present in tonsils with mAb806 that was restricted to the basal cell layer of the epidermis and mucosal squamous cells of the epithelium. In placenta, occasional immunostaining of the trophoblast epithelium was observed. […] All tissues were positive for the wtEGFR as evidenced by the universal staining seen with the 528 antibody (Table 3).

[3] = tested on: MDA-468 breast cancer cell line; assay: FACS binding to cell lines; type: cell-based, human
U87MG.wtEGFR cells = assay: FACS binding to cell lines; type: cell-based, human
Method: Briefly, cells were labelled with the relevant antibody (10 μg/ml) followed by fluorescein-conjugated goat anti-mouse IgG (1:100 dilution; Calbiochem San Diego, CA, USA; Becton-Dickinson PharMingen, San Diego, CA, US) as described previously (Nishikawa et al., 1994). FACS data was obtained on a Coulter Epics Elite ESP by observing a minimum of 5,000 events and analyzed using EXPO (version 2) for Windows.
Stained cells were analyzed with a FACS Calibur™ using Cell Quest™ software (Becton-Dickinson PharMingen). […] 1. Mouse IgG2a or IgG2b was used as an isotype control.
Cell lines and antibodies were prepared as described in Example 1. […] Cells (1 3 10 6) were incubated with 5 μg/ml of the appropriate antibody or an isotype-matched negative control in PBS containing 1% HSA for 30 min at 4° C. After three washes with PBS/1% HSA, cells were incubated an additional 30 min at 4° C. with FTTC-coupled goat anti-mouse antibody (1:100 dilution; Calbiochem, San Diego, CA). After three subsequent washes, cells were analyzed on an Epics Elite ESP (Beckman Coulter, Hialeah, FL) by observing a minimum of 20,000 events and analyzed using EXPO (version 2) for Windows.

wtEGFR on A431 cells = target: T1, wtEGFR on A431 cells (Homo sapiens, UniProt P00533); assay: Scatchard analysis on A431 cells; type: binding
T1 construct: A431 cells are human squamous carcinoma cells and express high levels of wtEGFR; host or cells: A431 human squamous (epidermoid) carcinoma cells
Method: All binding assays were performed in 1% HSA/PBS on 1-2×10^6 live U87MG.Δ2-7 or A431 cells for 90 min at 4° C. with gentle rotation. A set concentration of 10 ng/ml ^125I-labeled antibody was used in the presence of increasing concentrations of the appropriate unlabeled antibody. Non-specific binding was determined in the presence of 10,000-fold excess of unlabeled antibody. […] After the incubation was completed, cells were washed and counted for bound ^125I-labeled antibody using a COBRA II gamma counter (Packard Instrument Company, Meriden, CT, USA).

parental U87MG cells = assay: binding of iodinated antibody to cells; set-up: species or system human
de2-7 EGFR and wtEGFR = target: T2, de2-7 EGFR and wtEGFR (Homo sapiens, UniProt P00533, DELINS30-297G); assay: immunoprecipitation from 35S-labeled cells; type: binding
T2 construct: expressed in transfected cells; host or cells: NR6ΔEGFR and U87MG.ΔEGFR/U87MG.Δ2-7 (transfected ΔEGFR); U87MG.wtEGFR (transfected wtEGFR); U87MG and A431 (endogenous wtEGFR)
Method: Briefly, cells were labeled for 16 h with […] of Tran ^35S-Label (ICN Biomedicals, Irvine, CA) in DMEM without methionine/cysteine supplemented with 5% dialyzed FCS. After washing with PBS, cells were placed in lysis buffer (1% Triton X-100, 30 mM HEPES, 150 mM NaCl, 500 μM 4-(2-aminoethyl) benzenesulfonylfluoride (AEBSF), 150 nM aprotinin, 1 μM E-64 protease inhibitor, 0.5 mM EDTA, and 1 μM leupeptin, pH 7.4) for 1 h at 4° C. Lysates were clarified by centrifugation for 10 min at 12,000 g and then incubated with 5 μg of appropriate antibody for 30 min at 4° C. before the addition of Protein A-Sepharose. Immunoprecipitates were washed three times with lysis buffer, mixed with SDS sample buffer, separated by gel electrophoresis using a 4-20% Tris/glycine gel that was then dried, and exposed to X-ray film.

U87MG.wtEGFR xenografts = assay: established xenograft model; type: in vivo, nude mice; conditions: day control animals were sacrificed; 1 mg injections
Method: as §1, with “Centre. […]” for “Centre.”

U87MG xenografts [4] = assay: established xenograft model; type: in vivo, nude mice; conditions: 1 mg per injection
Method: as §1, with “Centre. […]” for “Centre.”

B1: mAb806: murine monoclonal antibody recognizing de2-7 EGFR and amplified EGFR; VH SEQ ID NO:2, VL SEQ ID NO:4 (antibody, listed as Mus musculus, V domains shown)
VH: MRVLILLWLFTAFPGVLSDVQLQESGPSLVKPSQSLSLTCTVTGYSITSDFAWNWIRQFPGNKLEWMGYISYSGNTRYNPSLKSRISITRDTSKNQFFLQLNSVTIEDTATYYCVTAGRGFPYWGQGTLVTVSA
VL: MVSTAQFLAFLLLWFPGARCDILMTQSPSSMSVSLGDTVSITCHSSQDINSNIGWLQQRPGKSFKGLIYHGTNLDDEVPSRFSGSGSGADYSLTISSLESEDFADYYCVQYAQFPWTFGGGTKLEIKR
[1]
  effect on survival: slightly extended
  median survival: 23 days
U87MG xenografts [2]
  effect on xenograft growth: no effect
DU145 cells
  FACS binding: bind to DU145 cells
Normal tissues; Skin
  reactivity: − occ. weak reactivity
Normal tissues; Tonsil
  reactivity: − occ. weak reactivity
[3]
  FACS staining: clearly stained both cell lines but at a lower level
U87MG.wtEGFR cells
  FACS staining: stained; also recorded: reacted weakly
wtEGFR on A431 cells
  receptors (binding sites) per cell: 2.4×10^5 receptors per cell and 2.3×10^5 receptors per cell
wtEGFR on A431 cells; average of three experiments
  affinity: 9.5e+07 M⁻¹
Parental U87MG cells
  binding of iodinated antibody: Neither ^125I-radiolabeled mAb806 or the DH8.3 antibody bound; also recorded: did not bind
de2-7 EGFR and wtEGFR
  immunoprecipitated EGFR bands: immunoprecipitated the two de2-7 EGFR bands, the wtEGFR was completely absent; also recorded: immunoprecipitated a single band corresponding to the wtEGFR from both U87MG.wtEGFR and A431 cells
U87MG.wtEGFR xenografts
  mean tumor volume: 468±78.38 mm^3 and 500±80 mm^3
U87MG xenografts [4]
  effect on xenograft growth: no effect
